According to the supplement of paper PMC10201428:
± gives the standard deviation of the averaged measurements.

B1: library; a variant is named by its letters at N, in order (parent)
chain: AATGTTGTTGATGCAACCATAAAGTGATATTTAATAATTATTTATAATCAGCAACTTAACCACAAAACAACCATATATTGATATNTCACAAAACAACCATAANTTGATATTTTTGTGAATCGAGTATTTCAGCAAAACTACTGCAGTAAGAA

What was measured:
[1] = variants of: B1; assay: relative integration efficiency (T-LR orientation) vs wild-type transposon end (log2 (normalized fold change)); transposon end mutated: left end; higher = more efficient transposition; details: with VchCAST RNA-guided transposition machinery (E. coli BL21(DE3) host, lacZ target)
Method: (§1)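 Pooled, barcoded VchCAST (Tn6677) mini-transposon donor libraries; each variable transposon-end sequence sits in a fixed pDonor mini-transposon context (10-bp barcode and cargo not included). Left- or right-end libraries were co-transformed with pEffector (TniQ-Cascade, TnsABC, lacZ crRNA, T7, 0.1 mM IPTG) into E. coli BL21(DE3) and grown 18 h at 37 C. T-LR and T-RL junction amplicons were sequenced; output/input barcode fold change was normalised to the mean of four wild-type barcodes and log2-transformed. Two biological replicates; zero-count/undetected variants carry floor values (-10 / -15), censored here. Barcode uncoupling by PCR recombination adds noise.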

[2] = variants of: B1; assay: relative integration efficiency (T-RL orientation) vs wild-type transposon end (log2 (normalized fold change)); transposon end mutated: left end; higher = more efficient transposition; details: with VchCAST RNA-guided transposition machinery (E. coli BL21(DE3) host, lacZ target)
Method: as §1

| Variant | relative integration efficiency (log2) [1] | relative integration efficiency (log2) [2] |
| --- | --- | --- |
| CG A15T A16T C17G C18G | -0.912 ± 0.078 | -0.824 ± 0.58 |
| CG A15T A69T A95T | -1.55 ± 0.76 | -1.31 ± 0.47 |
| CG A16C | -0.374 ± 0.29 | -0.26 ± 0.13 |
| CG A16C A70C A96C | -0.695 ± 0.11 | -0.475 ± 0.19 |
| CG A16C C17A | -0.804 ± 0.72 | -0.728 ± 0.41 |
| CG A16C C17A C18A A19C | -3.65 ± 3.1 | -2.24 ± 0.77 |
| CG A16C G24T T30A | -0.135 ± 0.14 | -0.3 ± 0.21 |
| TG A16C G24T T30A A70C T76A T84A C87A | -0.916 ± 0.88 | -0.362 ± 0.11 |
| TG A16C G24T T30A A70C T76A T86G | 0.235 ± 0.55 | 0.0267 ± 0.24 |
| TG A16C G24T T30A T76A A77G C87T | -0.0311 ± 0.37 | -0.534 ± 0.47 |
| TG A16C G24T T30A T76A T78A T84A C87A | 0.0694 ± 0.32 | 0.372 ± 0.36 |
| TG A16C G24T T30A T76A T78G C87A | -0.0456 ± 0.17 | 0.0194 ± 0.14 |
| CG A16C G24T T32G A33C | -0.475 ± 0.83 | -0.332 ± 0.18 |
| TG A16C G24T T32G A33C A70C T76A T84A C87A | -0.64 ± 0.74 | -0.378 ± 0.44 |
| TG A16C G24T T32G A33C A70C T76A T86G | -0.468 ± 0.42 | -0.731 ± 0.36 |
| TG A16C G24T T32G A33C T76A A77G C87T | -0.184 ± 0.15 | -0.603 ± 0.47 |
| TG A16C G24T T32G A33C T76A T78A T84A C87A | -0.658 ± 0.78 | -0.572 ± 0.34 |
| TG A16C G24T T32G A33C T76A T78G C87A | 0.456 ± 0.7 | 0.525 ± 0.38 |
| CG A16G | -0.395 ± 0.6 | -0.205 ± 0.27 |

| Variant | relative integration efficiency (log2) [1] | relative integration efficiency (log2) [2] |
| --- | --- | --- |
| CG A16T | -0.444 ± 0.68 | 0.0359 ± 0.064 |
| CG A16T A70T A96T | -1.37 ± 0.86 | -0.887 ± 0.43 |
| CG A16T C17G | -0.34 ± 0.47 | -0.0955 ± 0.095 |
| CG A16T C17G C18G A19T | -1.18 ± 1.3 | -1.61 ± 0.74 |
| CG A19C | -1.53 ± 1 | -1.49 ± 0.49 |
| CG A19C T20G | -2.1 ± 1.2 | -2.69 ± 0.82 |
| CG A19G | -0.219 ± 0.077 | -0.352 ± 0.074 |
| CG A19T | -0.706 ± 1.6 | -0.267 ± 0.38 |
| CG A19T A73T A99T | -2.5 ± 0.48 | -2.22 ± 0.88 |
| CG A19T T20A | -0.844 ± 0.51 | -1.12 ± 0.56 |
| CG A19T T20A A21T A22T | -1.03 ± 0.48 | -1.21 ± 0.46 |
| CG A21C | -1.47 ± 0.6 | -0.867 ± 0.55 |
| CG A21C A22C | -1.77 ± 0.64 | -1.82 ± 0.43 |
| CG A21C A22C A23C G24T | -0.914 ± 0.79 | -1.03 ± 0.74 |
| CG A21C A75C A101C | -3.75 ± 1.3 | -3.08 ± 0.72 |
| CG A21G | -0.166 ± 0.32 | -0.412 ± 0.49 |
| CG A21T | -0.384 ± 0.81 | -0.164 ± 0.16 |
| CG A21T A22T | -0.163 ± 0.75 | -0.172 ± 0.32 |
| CG A21T A22T A23T G24C | -0.979 ± 0.79 | -0.775 ± 0.46 |

| Variant | relative integration efficiency (log2) [1] | relative integration efficiency (log2) [2] |
| --- | --- | --- |
| CG A21T A75T A101T | -1.38 ± 0.99 | -1.31 ± 0.37 |
| CG A22C | -1.26 ± 0.71 | -1.07 ± 0.48 |
| CG A22C A23C | -1.74 ± 0.31 | -1.42 ± 0.42 |
| CG A22C A23C G24T T25G | -2.32 ± 0.92 | -2.89 ± 0.82 |
| CG A22G | -1.1 ± 1.1 | -0.733 ± 0.88 |
| CG A22T | 0.128 ± 0.29 | 0.0984 ± 0.17 |
| CG A22T A23T | -0.158 ± 0.56 | -0.421 ± 0.27 |
| CG A22T A23T G24C T25A | -1.61 ± 0.58 | -1.21 ± 0.56 |
| CG A22T G24T T31C A33C | -0.141 ± 0.18 | -0.0346 ± 0.14 |
| TG A22T G24T T31C A33C A70C T76A T84A C87A | -0.478 ± 0.83 | -0.488 ± 0.46 |
| TG A22T G24T T31C A33C A70C T76A T86G | -0.285 ± 0.49 | -0.627 ± 0.19 |
| TG A22T G24T T31C A33C T76A A77G C87T | -0.123 ± 0.13 | -0.61 ± 0.41 |
| TG A22T G24T T31C A33C T76A T78A T84A C87A | -0.618 ± 0.17 | -0.5 ± 0.36 |
| TG A22T G24T T31C A33C T76A T78G C87A | 1.14 ± 0.4 | 0.463 ± 0.49 |
| CG A22T T76A A102T | 0.271 ± 0.39 | 0.269 ± 0.11 |
| CG A23C | 0.494 ± 0.15 | -0.467 ± 0.23 |
| CG A23C G24T | -0.153 ± 0.042 | -0.106 ± 0.064 |
| CG A23C G24T T25G G26T | -1.99 ± 0.63 | -1.12 ± 0.49 |
| CG A23G | 0.359 ± 0.084 | -0.0169 ± 0.11 |
